Paper PMC9884297, “Iron-sulfur clusters are involved in post-translational arginylation” (Nature Communications, 2023)

Target: the molecule itself
Test: SEC; 120 mL gel filtration column, 25 mmol/L Tris pH 7.5, 100 mmol/L NaCl, 1 mmol/L TCEP, 0.35 mol/L glycerol; apparent oligomeric state

B1: Arg tRNA synthetase from E. coli (strain K12) (enzyme, UniProt P11875 1-577, looked up)
chain: MNIQALLSEKVRQAMIAAGAPADCEPQVRQSAKVQFGDYQANGMMAVAKKLGMAPRQLAEQVLTHLDLNGIASKVEIAGPGFINIFLDPAFLAEHVQQALASDRLGVATPEKQTIVVDYSAPNVAKEMHVGHLRSTIIGDAAVRTLEFLGHKVIRANHVGDWGTQFGMLIAWLEKQQQENAGEMELADLEGFYRDAKKHYDEDEEFAERARNYVVKLQSGDEYFREMWRKLVDITMTQNQITYDRLNVTLTRDDVMGESLYNPMLPGIVADLKAKGLAVESEGATVVFLDEFKNKEGEPMGVIIQKKDGGYLYTTTDIACAKYRYETLHADRVLYYIDSRQHQHLMQAWAIVRKAGYVPESVPLEHHMFGMMLGKDGKPFKTRAGGTVKLADLLDEALERARRLVAEKNPDMPADELEKLANAVGIGAVKYADLSKNRTTDYIFDWDNMLAFEGNTAPYMQYAYTRVLSVFRKAEIDEEQLAAAPVIIREDREAQLAARLLQFEETLTVVAREGTPHVMCAYLYDLAGLFSGFYEHCPILSAENEEVRNSRLKLAQLTAKTLKLGLDTLGIETVERM
notes: Arg tRNA synthetase, E. coli strain K12, UniProt P11875; A TEV-protease cleavage site (ENLYFQS) lies between the protein and the C-terminal (His)6 tag (pET-21a(+), NdeI/XhoI); also called EcArgRS; ArgRS
stoichiometry N: 6
